# Measured values published in patent publication US20130195901A1.
# Experiments:
# [1] = target: HLA-A*0201 class I monomer of the iTopia Epitope Discovery System; assay: iTopia affinity assay (ED50)
# [2] = target: HLA-A*0201 class I monomer of the iTopia Epitope Discovery System; assay: iTopia off-rate assay
Substance,fold reduction of ED50 vs native peptide [1] [fold],fold increase of halftime of dissociation vs native peptide [2] [fold],fold reduction of affinity vs native peptide [1] [fold]
PRAME425-433 S425F L433Nle analog (peptide),> 4,2,
"PRAME425-433 analog, Nva at P2 (peptide)",,,3
